Results on three substances are retold here after patent publication US20020037516.

Read-outs that look alike come from different tables or passages of the source.

The subject of series [1] is ErmE erythromycin resistance methyltransferase. As to conditions: Km of methylation; 10 mM MgCl2, 100 mM NH4Cl, pH 7.8, 30 min 25 C.
In series [2] the target is TSR thiostrepton resistance methyltransferase (tsr) (Streptomyces azureus) (UniProt P18644). As to conditions: Km of methylation; 5 mM MgCl2, 25 mM NH4Cl, pH 7.5, 25 C.
For the next series, the system named is Ribosomal protein L11. Kind of series: inhibition. To be noted: affinity from inhibition of TSR methylation; 5 mM MgCl2, 25 mM NH4Cl, pH 7.5, 25 C.
For series [3], the target named is TSR thiostrepton resistance methyltransferase (tsr) (Streptomyces azureus) (UniProt P18644). As to conditions: Km +/-3 nM, 15 experiments; 5 mM MgCl2, 25 C.

Consider 23S rRNA (Erm substrate), for which, in series [1], the activity stood at 23 nM.
By Ki is commonly meant a measure of affinity in units of concentration, obtained from inhibition or displacement. Read a high Ki as a looser hold on the target. E. coli mGAR 60-mer showed an activity in series [2] of 50 nM. Besides, in the series on Ribosomal protein L11, the Ki amounted to 0.084 µM.
The substance GAR 58-mer RNA returned an activity in series [3] of 47 nM.
